Each block holds one substance with its values, some of them ahead of it.
What was measured:
[1] = target: LexADB/WT-N (LexA DNA binding domain fused to residues 85-179 of human WT1) (human) (UniProt P19544); assay: yeast two-hybrid, LexA DNA binding domain fusion against Gal4 activation domain vector alone
[2] = target: LexADB/lamin C hybrid (Escherichia coli (strain K12)); assay: as above
[3] = target: LexADB/WT-INS (containing residues 250-266 of WT1) (human) (UniProt P19544); assay: as above
[4] = target: LexADB/WT-N (LexA DNA binding domain fused to residues 85-179 of human WT1) (human) (UniProt P19544); assay: yeast two-hybrid, LexA DNA binding domain fusion against Gal4 activation domain fusion
[5] = target: LexADB/lamin C hybrid (Escherichia coli (strain K12)); assay: as above
[6] = target: WT1, Wilm's tumor suppressor gene product (full length) (human) (UniProt P19544)

hUBC-9, human ubiquitin conjugating enzyme, sequence (P63279 whole entry): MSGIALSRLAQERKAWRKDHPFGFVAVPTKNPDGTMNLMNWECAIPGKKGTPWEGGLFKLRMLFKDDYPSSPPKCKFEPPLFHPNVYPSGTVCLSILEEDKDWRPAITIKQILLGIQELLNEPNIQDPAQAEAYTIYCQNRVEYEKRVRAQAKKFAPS
hUBC-9 fused with the Gal4 activation domain, sequence (P63279 whole entry, the tested form may be a part): as the sequence (P63279 whole entry) above

β-Galactosidase activity [1]: 0.3 units
β-Galactosidase activity [2]: 0.3 units
β-Galactosidase activity [3]: 0.2 units
Substance: Gal4 activation domain vector alone (from UniProt P04386)

β-Galactosidase activity [4]: 57.9 units
β-Galactosidase activity [5]: 1.5 units
Substance: hUBC-9 fused with the Gal4 activation domain

relative CAT activity (PDGF A-chain promoter driven CAT reporter, 293 cells) (% relative activity) [6]: 2
Substance: hUBC-9, human ubiquitin conjugating enzyme
